Measured values taken from paper PMC10397247.
Blank lines part the entries; values can stand above or below the binder they belong to.

Columns and labels:
Assay in all cases: two-hybrid library CCNG1;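 note: natural log of median RNA to DNA barcode read ratio; higher means stronger binding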
4H3277-bH = target: T1, 4H3277-bH
T1 chain: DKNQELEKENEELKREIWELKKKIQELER

4H2503-bH = target: T2, 4H2503-bH
T2 chain: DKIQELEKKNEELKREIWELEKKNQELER

4H2223-bH = target: T3, 4H2223-bH
T3 chain: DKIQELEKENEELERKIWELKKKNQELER

4H2692-bH = target: T4, 4H2692-bH
T4 chain: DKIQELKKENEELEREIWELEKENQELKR

4H741-bH = target: T5, 4H741-bH
T5 chain: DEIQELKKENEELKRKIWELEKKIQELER

4H2143-bH = target: T6, 4H2143-bH
T6 chain: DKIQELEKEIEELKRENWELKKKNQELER

4H2588-bH = target: T7, 4H2588-bH
T7 chain: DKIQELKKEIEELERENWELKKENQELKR

4H319-bH = target: T8, 4H319-bH
T8 chain: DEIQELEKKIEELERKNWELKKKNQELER

4H348-bH = target: T9, 4H348-bH
T9 chain: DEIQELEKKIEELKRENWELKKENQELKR

4H40-bH = target: T10, 4H40-bH
T10 chain: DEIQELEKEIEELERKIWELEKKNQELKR

4H2473-bH = target: T11, 4H2473-bH
T11 chain: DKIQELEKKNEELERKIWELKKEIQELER

4H2915-bH = target: T12, 4H2915-bH
T12 chain: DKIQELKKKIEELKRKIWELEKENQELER

4H492-bH = target: T13, 4H492-bH
T13 chain: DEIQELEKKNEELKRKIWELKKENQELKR

4H2717-bH = target: T14, 4H2717-bH
T14 chain: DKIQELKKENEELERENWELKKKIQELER

4H3057-bH = target: T15, 4H3057-bH
T15 chain: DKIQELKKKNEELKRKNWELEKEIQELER

4H2839-bH = target: T16, 4H2839-bH
T16 chain: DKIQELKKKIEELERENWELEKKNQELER

4H477-bH = target: T17, 4H477-bH
T17 chain: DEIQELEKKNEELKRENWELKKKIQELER

4H2438-bH = target: T18, 4H2438-bH
T18 chain: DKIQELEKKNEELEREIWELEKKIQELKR

4H2134-bH = target: T19, 4H2134-bH
T19 chain: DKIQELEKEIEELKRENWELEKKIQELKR

4H182-bH = target: T20, 4H182-bH
T20 chain: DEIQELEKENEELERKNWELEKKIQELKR

4H1359-bA = target: T21, 4H1359-bA
T21 chain: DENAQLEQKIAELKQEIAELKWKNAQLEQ

4H1449-bA = target: T22, 4H1449-bA
T22 chain: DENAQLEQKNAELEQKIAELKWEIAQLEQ

4H3638-bA = target: T23, 4H3638-bA
T23 chain: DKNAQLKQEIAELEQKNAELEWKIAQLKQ

4H3974-bA = target: T24, 4H3974-bA
T24 chain: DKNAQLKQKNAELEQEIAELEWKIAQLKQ

4H1804-bA = target: T25, 4H1804-bA
T25 chain: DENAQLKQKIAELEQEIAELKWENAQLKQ

4H1985-bA = target: T26, 4H1985-bA
T26 chain: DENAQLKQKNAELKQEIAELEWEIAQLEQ

4H1629-bA = target: T27, 4H1629-bA
T27 chain: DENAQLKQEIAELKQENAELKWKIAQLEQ

4H3817-bA = target: T28, 4H3817-bA
T28 chain: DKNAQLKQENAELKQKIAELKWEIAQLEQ

4H3631-bA = target: T29, 4H3631-bA
T29 chain: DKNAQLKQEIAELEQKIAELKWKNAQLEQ

4H584-bA = target: T30, 4H584-bA
T30 chain: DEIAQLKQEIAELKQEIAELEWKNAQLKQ

4H619-bA = target: T31, 4H619-bA
T31 chain: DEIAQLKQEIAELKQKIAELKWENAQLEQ

4H1393-bA = target: T32, 4H1393-bA
T32 chain: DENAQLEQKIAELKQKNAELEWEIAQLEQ

4H570-bA = target: T33, 4H570-bA
T33 chain: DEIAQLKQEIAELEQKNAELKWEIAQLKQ

4H1710-bA = target: T34, 4H1710-bA
T34 chain: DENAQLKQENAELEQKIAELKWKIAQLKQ

4H3414-bA = target: T35, 4H3414-bA
T35 chain: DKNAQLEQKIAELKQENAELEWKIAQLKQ

4H3172-bA = target: T36, 4H3172-bA
T36 chain: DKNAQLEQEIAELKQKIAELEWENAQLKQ

4H850-bA = target: T37, 4H850-bA
T37 chain: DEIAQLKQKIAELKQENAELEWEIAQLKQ

4H906-bA = target: T38, 4H906-bA
T38 chain: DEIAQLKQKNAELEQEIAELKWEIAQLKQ

4H3129-bA = target: T39, 4H3129-bA
T39 chain: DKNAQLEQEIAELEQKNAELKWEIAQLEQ

4H780-bN = target: T40, 4H780-bN
T40 chain: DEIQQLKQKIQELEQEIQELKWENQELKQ

4H683-bN = target: T41, 4H683-bN
T41 chain: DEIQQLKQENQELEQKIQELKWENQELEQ

4H118-bN = target: T42, 4H118-bN
T42 chain: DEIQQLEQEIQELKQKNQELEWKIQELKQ

4H346-bN = target: T43, 4H346-bN
T43 chain: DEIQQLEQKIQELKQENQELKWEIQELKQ

4H968-bN = target: T44, 4H968-bN
T44 chain: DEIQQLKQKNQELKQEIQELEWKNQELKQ

4H855-bN = target: T45, 4H855-bN
T45 chain: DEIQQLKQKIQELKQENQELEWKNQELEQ

4H754-bN = target: T46, 4H754-bN
T46 chain: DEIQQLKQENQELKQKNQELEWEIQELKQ

4H457-bN = target: T47, 4H457-bN
T47 chain: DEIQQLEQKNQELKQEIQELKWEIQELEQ

4H1831-bN = target: T48, 4H1831-bN
T48 chain: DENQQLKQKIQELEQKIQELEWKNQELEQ

4H1158-bN = target: T49, 4H1158-bN
T49 chain: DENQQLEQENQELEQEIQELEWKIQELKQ

4H3010-bN = target: T50, 4H3010-bN
T50 chain: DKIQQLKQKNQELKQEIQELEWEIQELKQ

4H2586-bN = target: T51, 4H2586-bN
T51 chain: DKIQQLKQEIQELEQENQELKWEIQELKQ

4H797-bN = target: T52, 4H797-bN
T52 chain: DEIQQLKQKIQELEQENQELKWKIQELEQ

4H2627-bN = target: T53, 4H2627-bN
T53 chain: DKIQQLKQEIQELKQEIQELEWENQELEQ

4H3427-bN = target: T54, 4H3427-bN
T54 chain: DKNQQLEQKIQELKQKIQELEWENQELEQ

4H4073-bN = target: T55, 4H4073-bN
T55 chain: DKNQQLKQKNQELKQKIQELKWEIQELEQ

4H918-bN = target: T56, 4H918-bN
T56 chain: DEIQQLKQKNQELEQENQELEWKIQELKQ

4H2702-bN = target: T57, 4H2702-bN
T57 chain: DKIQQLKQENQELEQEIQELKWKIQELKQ

4H2673-bN = target: T58, 4H2673-bN
T58 chain: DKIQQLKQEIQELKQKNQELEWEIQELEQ

4H953-bN = target: T59, 4H953-bN
T59 chain: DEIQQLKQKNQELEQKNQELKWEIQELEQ

4H170-bN = target: T60, 4H170-bN
T60 chain: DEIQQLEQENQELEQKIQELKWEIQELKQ

4H3112-bN = target: T61, 4H3112-bN
T61 chain: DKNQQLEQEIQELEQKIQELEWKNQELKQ

4H575-bN = target: T62, 4H575-bN
T62 chain: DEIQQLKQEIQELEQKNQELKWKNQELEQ

4H112-bN = target: T63, 4H112-bN
T63 chain: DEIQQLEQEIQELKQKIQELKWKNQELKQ

4H3926-bN = target: T64, 4H3926-bN
T64 chain: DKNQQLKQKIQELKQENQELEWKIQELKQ

interaction score (4H3277-bH): -0.523 | interaction score (4H2503-bH): 0.0255 | interaction score (4H2223-bH): 0.341 | interaction score (4H2692-bH): 1.16 | interaction score (4H741-bH): -0.207 | interaction score (4H2143-bH): 0.14 | interaction score (4H2588-bH): -0.809 | interaction score (4H319-bH): 0.27 | interaction score (4H348-bH): -0.493 | interaction score (4H40-bH): -0.335 | interaction score (4H2473-bH): 0.11 | interaction score (4H2915-bH): 0.801 | interaction score (4H492-bH): -0.775 | interaction score (4H2717-bH): -0.508 | interaction score (4H3057-bH): 0.511 | interaction score (4H2839-bH): -0.281 | interaction score (4H477-bH): -0.331 | interaction score (4H2438-bH): -0.311 | interaction score (4H2134-bH): 0.462 | interaction score (4H182-bH): 0.517
B1: 4H182-bH (peptide)
chain: DEIQELEKENEELERKNWELEKKIQELKR

interaction score (4H1359-bA): 0.162 | interaction score (4H1449-bA): -0.804 | interaction score (4H3638-bA): -0.492 | interaction score (4H3974-bA): -0.0513 | interaction score (4H1804-bA): -0.948 | interaction score (4H1985-bA): 0.768 | interaction score (4H1629-bA): -0.732 | interaction score (4H3817-bA): -0.524 | interaction score (4H3631-bA): 1.41 | interaction score (4H584-bA): -0.341 | interaction score (4H619-bA): -0.844 | interaction score (4H1393-bA): -0.644 | interaction score (4H570-bA): -0.609 | interaction score (4H1710-bA): -0.54 | interaction score (4H3414-bA): -0.665 | interaction score (4H3172-bA): -0.287 | interaction score (4H850-bA): -0.751 | interaction score (4H906-bA): -0.601 | interaction score (4H3129-bA): -0.77
B2: 4H1359-bA (peptide)
chain: DENAQLEQKIAELKQEIAELKWKNAQLEQ

interaction score (4H780-bN): 0.755 | interaction score (4H683-bN): -0.968 | interaction score (4H118-bN): -0.511 | interaction score (4H346-bN): -0.486 | interaction score (4H968-bN): 0.452 | interaction score (4H855-bN): -0.582 | interaction score (4H754-bN): -0.189 | interaction score (4H457-bN): 0.723 | interaction score (4H1831-bN): 0.348 | interaction score (4H1158-bN): 0.877 | interaction score (4H3010-bN): 1.25 | interaction score (4H2586-bN): -1.21 | interaction score (4H797-bN): -1.01 | interaction score (4H2627-bN): 1.22 | interaction score (4H3427-bN): 1.06 | interaction score (4H4073-bN): 1.25 | interaction score (4H918-bN): -0.456 | interaction score (4H2702-bN): 0.834 | interaction score (4H2673-bN): 0.592 | interaction score (4H953-bN): -0.805 | interaction score (4H170-bN): -0.245 | interaction score (4H3112-bN): 1.44 | interaction score (4H575-bN): -0.471 | interaction score (4H112-bN): 1.46 | interaction score (4H3926-bN): -1.67
B3: 4H112-bN (peptide)
chain: DEIQQLEQEIQELKQKIQELKWKNQELKQ
